Data set [1] deals with α-L-rhamnosidase from A. terreus. Nature of the data set: Influence of rhamnose excess on rhamnosidase activity (product inhibition). In kind it is biochemical, Aspergillus terreus. Conditions: pNPR substrate, rhamnose solutions 0.6-3 mM added 1:1:1, pH 6.5, 40° C., 30 minutes. The protocol:
The analysis was performed only for α-l-rhamnosidase from A. terreus. The influence of rhamnose excess on enzyme activity was investigated using the same colorimetric method as described above (See FIG. 1). The pNPR substrate was first dissolved in DMSO, with concentration adjusted to 300 μM in 100 mM sodium phosphate buffer pH 6.5. Enzymes were diluted to concentration of 30 μg/mL in 100 mM sodium phosphate buffer pH 6.5. Following sequence of rhamnose concentrations were prepared in 100 mM sodium phosphate buffer pH 6.5: 0.6 mM, 1.2 mM, 1.8 mM, 2.4 mM, 3 mM. 240 μL of the total reaction mixture was prepared by adding the substrate solution, the enzyme solution and the rhamnose solution in 1:1:1 ratio. The activity assay was performed on 96-well Microtiter UV plate by Thermo Scientific (Waltham, MA USA). All reactions were done at pH 6.5 and in temperature 40° C. The changes in absorbance were monitored at 405 nm for 30 minutes in Microplate reader Varioskan® Flash. The relative activity of α-L-rhamnosidase from A. terreus was measured using pNPR substrate in the excess of rhamnose in the reaction mix. The analysis was performed in order to study product inhibition phenomenon.

The nature of data set [2]: Rhamnosidase activity assessment, colorimetric method using pNPR. In kind it is biochemical. Particulars: 40° C. On the procedure:
α-l-Rhamnosidase activity of enzyme from A. terreus and enzyme from A. niger was determined by a colorimetric method using p-nitrophenyl-α-l-rhamnopyranoside (pNPR) (See the chemical formula equation shown in FIG. 1). The pNPR substrate was first dissolved in DMSO, with concentration adjusted to 200 μM in 100 mM sodium phosphate buffer pH 6.5. Enzymes were diluted to concentration of 20 μg/mL in 100 mM sodium phosphate buffer pH 6.5. The reaction was prepared by mixing the substrate solution with enzyme solution in 1:1 ratio. The activity assay was performed on 96-well Microtiter UV plate by Thermo Scientific (Waltham, MA USA). All reactions were done at pH 6.5 and in temperature 40° C. The changes in absorbance were monitored at 405 nm for 60 minutes in Microplate reader Varioskan® Flash. The relative activity of α-L-rhamnosidase from A. terreus and α-L-rhamnosidase from A. niger were measured against the p-NPR. The reaction was monitored in time at 40° C. and pH 6.5 (See FIG. 3). The enzymes caused release of the product—4-nitrophenol. […] The 70% conversion of R2 is plenty sufficient for test purposes, therefore the enzyme with faster kinetics was used for further analysis.

Data set [3] can be described thus: β-D-glucosidase activity assessment, colorimetric method using pNPG. In kind it is biochemical. The protocol: β-D-glucosidase activity of enzyme from A. terreus was determined by a colorimetric method using p-nitrophenyl-β-glucopyranoside (pNPG). The pNPG substrate was first dissolved in DMSO, with concentration adjusted to 200 μM in 100 mM sodium phosphate buffer pH 6.5. To analyse the substrate preference, the pNPG was mixed with pNPR at 1:1 ratio, then dissolved in DMSO, and concentration of such mixture was adjusted to 200 μM in 100 mM sodium phosphate buffer pH 6.5. As a control, pNPR, prepared as above, at concentration of 200 μM was used. Enzyme was diluted to concentration of 20 μg/mL in 100 mM sodium phosphate buffer pH 6.5. The reactions were prepared by mixing the substrate solution with enzyme solution in 1:1 ratio. The activity assay was performed on 96-well Microtiter UV plate by Thermo Scientific (Waltham, MA USA). […] The changes in relative absorbance values were monitored at 405 nm for about 30 minutes in Microplate reader Varioskan® Flash.
pNPG was used as a substrate to monitor β-D-glucosidase activity of enzyme from A. terreus, the pNPR was used as a substrate showing α-l-rhamnopyranoside activity, and mixture of both substrates was used to determine substrate preference (see FIG. 5). […] The absorbance signal was not detected for the reaction with pNPG, and the reaction kinetics observed for pNPR substrate was not impacted by presence of pNPG in the reaction with mixed substrates.

For `C[C@H](O)[C@H](O)[C@@H](O)[C@@H](O)C=O` [rhamnose], the “effect of added rhamnose on substrate conversion rate” value in data set [1] is listed as “substrate conversion rate decreased”.

B1: enzyme from A. niger: α-L-rhamnosidase from Aspergillus niger obtained from Megazyme LTD; SEQ ID. 2 (protein)
chain: MAPIALKILLFTSLIVPSISLSDQARNGHARTICEVKPGGSSEIDDVPAIVDALTTCGSGGRVIFSNNTYHINSVMNTTWLDDVEIDLQGTLLWSTNISYWLNHSLPVGYQNQSTAWILGGKDIVFEGHGYGTFNGSGQTWYRYVGSTSNYPRRPNQLTVSGAMGAVFKGLRFVQSQMWTMSIIHTSNSWFDSIYVNNLYDDGGSAQNTDGANTIYSKNITLTNWEVVNGDDSISTKANSTDITIANCTFTSGLGIAIGSIGQYNGAFETVERLKISNITYEKTTHAVYFKTWTGDQVGYPPNGGGGGLGYASDIVATNLKTNNLKGAPFTISQCTTFSGASGNCTNSKFQIRDLVFTDISGTTDSSDVASFQCSAVAPCEDITIENVSLRIAGNTTHAEEYLCGNVDGTVGFNCTGDVCVGSSATGGC
modifications: Aspergillus niger
In the case of B1, in data set [2] (pNPR 100 μM, pH 6.5), the “time to reach about 70% of converted substrate” value worked out at 30 min. The “substrate converted more than A. terreus enzyme after 60 min” value in data set [2] (pNPR 100 μM, pH 6.5, 60 min) is recorded as 10%.

B2: enzyme from A. terreus: recombinant α-L-rhamnosidase from Aspergillus terreus, prepared internally, secreted in P. pastoris; SEQ ID. 1 (protein, listed as Aspergillus terreus)
chain: MALSISQVAFEHHRTALGIGETQPRVSWRFDGNVSDWEQRAYEIEVKRAGHDADVFRSESSDSVLVPWPSSPLQSGEEATVRVRSFGSDGQHDTPWSDAVTVEPGLLTPDDWHDAVVIASDRPTEVDATHRPIQFRKEFSVDDSYVSARLYITALGLYEARINDQRVGDHVMAPGWQSYQYRHEYNTYDVTDLLKQGPNAIGVTVGEGWYSGRIGYDGGKRNIYGDTLGLLSLLVVTKSDGSKLYIPSDSSWKSSTGPIISSEIYDGEEYDSRLEQKGWSQVGFNSTGWLGTHELSFPKERLASPDGPPVRRVAEHKLANVFSSASGKTVLDFGQNLVGWLRIRVKGPKGQTIRFVHTEVMENGEVATRPLRQAKATDHFTLSGEGVQEWEPSFTYHGFRYVQVDGWPADTPLDENSVTAIVVHSDMERTGYFECSNPLISKLHENILWSMRGNFFSIPTDCPQRDERLGWTGDIHAFSRTANFIYDTAGFLRAWLKDARSEQLNHSYSLPYVIPNIHGNGETPTSIWGDAIVGVPWQLYESFGDKVMLEEQYGGAKDWVDKGIVRNDVGLWDRSTFQWADWLDPKAPADDPGDATTNKYLVSDAYLLHSTDMLANISTSLSKGEEASNYTEWHAKLTKEFQKAWITSNGTMANETQTGLALPLYFDLFPSAEQAQSAAKRLVNIIKQNDYKVGTGFAGTHLLGHTLSKYGESDAFYSMLRQTEVPSWLYQVVMNGTTTWERWDSMLPNGSINPGQMTSFNHYAVGSVGSWLHEVIGGLSPAEPGWRRINIEVVPGGDLQQASTKFLTPYGMASTKWWLDGQDQSCGGFDFHLVAEVPPNTRATVVLPGKGGEKVDVGSGVHEYHVRCVKL
As to B2, the “substrate preference, pNPR versus pNPG and mixed substrates” value in data set [3] (pNPG mixed with pNPR 1:1, pH 6.5, 40° C.) is given as “recognized only pNPR as a substrate”. Moreover, the “absorbance signal at 405 nm with pNPG (β-D-glucosidase activity)” value in data set [3] (pNPG, pH 6.5, 40° C., about 30 minutes) was “not detected”. For the same molecule, in data set [2] (pNPR 100 μM, pH 6.5), the “converted substrate at plateau” value turned out to be 70% and the “time to reach about 70% of converted substrate” value is listed as 10 min. Besides, in data set [2] (pNPR, pH 6.5), the “kinetic behaviour compared between the two enzymes” value was “acting faster”.

The values above are taken from US12371726B2, “Process to produce mono-rhamnolipids” (Conopco, Inc., priority 2021, dated 2025).
